Test results: PMC12340942

Molecular target: RSV postfusion F (Flys-GCN without the StrepII-tag) (respiratory syncytial virus (RSV))
Test: cryo-EM structure

Substance: RSV postfusion F (Flys-GCN without the StrepII-tag) (domain or fragment)
- stoichiometry N: 3
